Consider one molecule from patent publication JP2013242308A.

What is called Kd is the constant that tells how readily two partners part at equilibrium. Low readings indicate higher affinity, high ones lower affinity.

The experiment addresses テネイシンC (human) (UniProt P24821). Kind of experiment: SPR (Biacore 2000). On the technique in general: SPR reads the build-up and loss of mass on a sensor chip optically.

B1: 抗TNC−4F10のscFvフラグメント(scFv 4F10) (scFv, not shown: small tags and cut ends)
scFv: EVLLQQSGPELVKPGASVKIPCKASGYTFTDYNMDWMKQSHGKSLEWIGDINPKSGNSIYNQKFKGKATLTVDKSSSTAYMELRSLTSEDTAVYYCAGRDWSAWFAFWGQGTLVSVSAGGGGSGGGGSGGGGSDVVMTQTPLTLSVIIGQPASISCKSSQSLLYSNGKTYLNWLLQRPGQSPKRLIYLVSKLDSGVPDRFTGSGSGTDFTLKISRVEAEDLGDYYCVQTTHFPWTFGGGTKLEIKDYKDDDDK
The molecule B1 showed a Kd of 40 nM.
